{"source": "paper PMC4507770", "target": "GST–XJTGB3 fusion protein (BSMV Xinjiang strain TGB3) (barley stripe mosaic virus, Xinjiang strain)", "assay": "pull-down", "data": [{"substance": "XJTGB1_(T395A/T401A) double mutant, C-terminal His-tagged (natural protein)", "values": [{"measurement": "TGB3 protein-binding efficiency compared with wt XJTGB1", "value": 40, "unit": "%"}, {"measurement": "percent less effective binding than wt XJTGB1", "value": 40, "unit": "% less"}]}]}
